Tests used:
SNAP-hGLP1R (human) = SNAP-hGLP1R (human) (UniProt P43220)
SNAPf-mGLP1R (mouse) = SNAPf-mGLP1R (mouse) (UniProt O35659)
hGLP1R-GFP (human) = hGLP1R-GFP (human) (UniProt P43220)

Sequence of UniProt O35659 (O35659 22-463): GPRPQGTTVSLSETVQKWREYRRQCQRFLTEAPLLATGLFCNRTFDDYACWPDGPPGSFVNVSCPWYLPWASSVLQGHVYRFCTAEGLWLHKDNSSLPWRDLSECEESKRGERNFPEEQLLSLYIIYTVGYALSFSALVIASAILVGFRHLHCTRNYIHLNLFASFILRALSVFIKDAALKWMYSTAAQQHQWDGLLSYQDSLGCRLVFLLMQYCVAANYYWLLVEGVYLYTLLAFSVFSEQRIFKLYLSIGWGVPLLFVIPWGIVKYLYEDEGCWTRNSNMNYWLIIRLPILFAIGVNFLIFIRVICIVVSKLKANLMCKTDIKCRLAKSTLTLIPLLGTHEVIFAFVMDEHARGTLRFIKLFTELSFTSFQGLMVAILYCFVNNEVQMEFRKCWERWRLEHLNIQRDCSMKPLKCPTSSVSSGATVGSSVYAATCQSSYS

## Exendin4(1-39) (peptide)
SNAP-hGLP1R (human)
  EC50 of Exendin4-induced cAMP generation (LANCE cAMP assay, transfected AD293 cells, 30 min with ligand + 100 µM IBMX): 8.02 pM
SNAPf-mGLP1R (mouse)
  EC50 of Exendin4-induced cAMP generation (LANCE cAMP assay, transfected AD293 cells, 30 min with ligand + 100 µM IBMX): 4.22 pM
hGLP1R-GFP (human)
  EC50 of Exendin4-induced cAMP generation (LANCE cAMP assay, transfected AD293 cells, 30 min with ligand + 100 µM IBMX): 5 pM

Source: PMC9849236
